“Also recorded” adds a separate entry of the source. Where two headings read alike, the source gives them in different places.
What was measured:
[1] = system: EphB4; assay: EphB4 expression in PC3 cells on EGFR / IGF-1R blockade (Western blot); format: cell-based, human; conditions: AG1478 1 nM 36 hours, MAB391 2 μg/ml overnight
Protocol: A) Western blot of PC3 cells treated with or without EGFR specific inhibitor AG1478 (1 nM) for 36 hours. […] The membrane was stripped and reprobed with β-actin, which was unaffected. B) Western Blot of triplicate samples of PC3 cells treated with or without IGFR-1 specific neutralizing antibody MAB391 (2 μg/ml; overnight). The membrane was sequentially probed with EphB4, IGFR-1 and β-actin antibodies.

[2] = system: EphB4; assay: EphB4 expression in HNSCC cell lines on EGFR inhibition (Western blot); format: cell-based, human
Protocol: Western blot of total cell lysates sequentially probed with EphB4 monoclonal antibody, stripped and reprobed with β-actin monoclonal antibody as described for FIG. 39C. B) Effect of the specific EGFR inhibitor AG1478 on EphB4 expression: Western blot of crude cell lysates of SCC15 treated with 0-1000 nM AG 1478 for 24 h in media supplemented with 10% FCS (left) or with […] AG 1478 for 4, 8, 12 or 24 h (right). Shown are membranes sequentially probed for EphB4 and β-actin. C) Effect of inhibition of EGFR signaling on EphB4 expression in SCC cell lines: Cells maintained in growth media containing 10% FCS were treated for 24 hr with 1 μM AG 1478, after which crude cell lysates were analyzed by Western blots of cell lysates sequentially probed with for EGFR, EphB4, ephrin B2 and β-actin antibodies. Specific signal for EGFR was detected at 170 kD and ephrin B2 at 37 kD in addition to EphB4 and β-actin as described in FIG. 1C. β-actin serves as loading and transfer control.

[3] = biological target: T1, EphrinB2 (Homo sapiens, UniProt P52799); assay: EphrinB2 (B2-AP) binding assay on affinity magnetic beads; conditions: for order of binding activity: SP column fractions 1, 2 and 3
T1 construct: protein fusion of Ephrin B2 ectodomain with placental alkaline phosphatase
From the text: To test whether the B4-HSA fusion property retained the ability of the EphB4 extracellular domain to bind to EphrinB2, the ability of the purified B4-HSA fusion was compared to that of GCF2F, GCF2, GC, CF and B4-Fc fusion, which comprises the extracellular domain of B4 fused to hIgG1 Fc as described in Example 1. Biotinylated or His-tag protein samples were inoculated with the corresponding affinity magnetic beads and B2-AP for an hour at room temperature, before addition of PnPP. Results of binding assays are shown on FIG. 67.
Fractions 1, 2 and 3 of biotinylated and PEGylated sB4 from the SP column purification, corresponding to polypegylated, monopegylated and unpegylated biotinylated sB4, were tested for their ability to bind EphrinB2 using the standard assay. Results of this experiment are shown on FIG. 72.

[4] = In vivo stability in mice after intravenous injection; parameters: species or system mouse; conditions: for stability in vivo relative to sB4 / EphB4 ectodomain: mice
Protocol: The stability of the purified biotinylated sB4 and sB4-HSA were assayed in vivo. Each of the proteins were intravenously injected into the tail of mice in the amount of 0.5 nmoles per mouse. Blood from the eye of each mouse was taken in time frames of 15 min (0 days), 1, 2, 3 and 6 days. […] of obtained serum was used in binding assay with Ephrin-B2-Alkaline Phosphatase fusion protein and Streptavidin-coated magnetic beads as a solid phase. […] For example, one day after injection, the levels of sB4-HSA in the blood of the mice were 5-fold greater than those of sB4.
Fractions 1, 2 and 3 of biotinylated and PEGylated sB4 from the SP column purification, corresponding to polypegylated, monopegylated and unpegylated biotinylated sB4, were introduced by intravenous injection into mice in the amount of 0.5 nMoles/mouse. Blood from each mouse was taken in time frame of 10 min, 1, 2 and 3 days. […] of obtained serum was used in binding assay with Ephrin-B2-Alkaline Phosphatase fusion protein and Streptavidin-coated magnetic beads as a solid phase. Signals, obtained at 10 min were taken as 100%. The two mice for each protein were of a different strain.

[5] = In vitro stability in mouse serum (retained B2-AP binding); format: in vitro ADME
Protocol: Both soluble EphB4 ectodomain protein (sB4) and EphB4 ectodomain fused to HSA (HSA-sB4) were biotin labeled through carbohydrate chains using sodium meta-periodate as an oxidant and EZ-Link Biotin Hydrazide (PIERCE, Cat. #21339) according to manufacture's protocol. The in vitro stability of the biotinylated sB4 protein was tested by incubating […] with 40 μL of mouse serum at 37° C. for 0, 0.5, 1, 2 and 3 days. Two μL of magnetic beads and B2-AP was added for an extra hour at room temperature. After washing twice with buffer, pnPP was added for 1 hour.
The fractions were also tested for their stability in vitro. The fractions were tested for retention of EphrinB2 binding activity after incubation in mouse serum at 37° C. for three days.

[6] = retention of EphrinB2 binding, mouse serum, 37° C., three days

T1 sequence (P52799 28-229 limits assumed): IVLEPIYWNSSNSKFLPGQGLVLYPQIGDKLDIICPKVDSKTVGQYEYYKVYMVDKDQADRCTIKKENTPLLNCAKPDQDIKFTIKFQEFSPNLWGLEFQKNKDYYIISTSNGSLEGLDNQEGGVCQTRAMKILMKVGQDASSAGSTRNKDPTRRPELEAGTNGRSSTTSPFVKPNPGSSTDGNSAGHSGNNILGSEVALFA

## COc1cc2ncnc(Nc3cccc(Cl)c3)c2cc1OC [AG1478]
[1]
  EphB4 level: down-regulated; also recorded: Decreased EphB4 signal
[2]; SCC-9, -12, -13 and -71
  total amount of EphB4: no effect
[2]; SCC-15 and SCC-25, 24 h, 1 µM
  total amount of EphB4: marked loss

## B4-HSA: EphB4 ectodomain fused to human serum albumin, mature form SEQ ID NO:19
[3]
  binding activity towards EphrinB2: retain most of its binding activity
  binding to EphrinB2 compared with the B4-Fc fusion: superior
[4]
  stability in vivo relative to sB4 / EphB4 ectodomain: superior stability
[4]; one day after injection, i.v. 0.5 nmoles per mouse
  levels in the blood relative to sB4: 5 fold

## EphB4 ectodomain fusion to the C-terminus of HSA: EphB4 ectodomain fused to the C-terminus of HSA
[3]
  binding activity towards EphrinB2: retain the ability to bind
[4]
  stability in vivo relative to sB4 / EphB4 ectodomain: enhanced stability

B1: sB4: soluble EphB4 ectodomain protein, biotin labeled through carbohydrate chains; SP column fraction 3 (protein)
chain: LEETLLNTKLETADLKWVTFPQVDGQWEELSGLDEEQHSVRTYEVCDVQRAPGQAHWLRTGWVPRRGAVHVYATLRFTMLECLSLPRAGRSCKETFTVFYYESDADTATALTPAWMENPYIKVDTVAAEHLTRKRPGAEATGKVNVKTLRLGPLSKAGFYLAFQDQGACMALLSLHLFYKKCAQLTVNLTRFPETVPRELVVPVAGSCVVDAVPAPGPSPSLYCREDGQWAEQPVTGCSCAPGFEAAEGNTKCRACAQGTFKPLSGEGSCQPCPANSHSNTIGSAVCQCRVGYFRARTDPRGAPCTTPPSAPRSVVSRLNGSSLHLEWSAPLESGGREDLTYALRCRECRPGGSCAPCGGDLTFDPGPRDLVEPWVVVRGLRPDFTYTFEVTALNGVSSLATGPVPFEPVNVTTDREVPPAVSDIRVTRSSPSSLSLAWAVPRAPSGAVLDYEVKYHEKGAEGPSSVRFLKTSENRAELRGLKRGASYLVQVRARSEAGYGPFGQEHHSQTQLDESEGWREQLA
[5]
  B2 binding activity lost: less than 10%
  order of in vitro stability: monopegylated>unpegylated>polypegylated
[3]
  order of binding activity: Unpegylated>monopegylated>polypegylated

B2: monopegylated: fraction 2: monopegylated biotinylated sB4, linear PEG-succinimidyl propionate of about 20 kda (conjugate)
chain: B1 chain
[5]; [6]
  order of in vitro stability: monopegylated>unpegylated>polypegylated
[3]
  order of binding activity: Unpegylated>monopegylated>polypegylated

B3: polypegylated: fraction 1: polypegylated biotinylated sB4, linear PEG-succinimidyl propionate of about 20 kda (conjugate)
chain: B1 chain
[5]; [6]
  order of in vitro stability: monopegylated>unpegylated>polypegylated
[3]
  order of binding activity: Unpegylated>monopegylated>polypegylated

Source: US9533026B2, “Polypeptide compounds for inhibiting angiogenesis and tumor growth” (VasGene Therapeutics, Inc., priority 2004, dated 2017)
